According to patent publication US20260242419A1, “A CYCLIC PEPTIDE FOR TRAPPING INTERLEUKIN-1 BETA” (Merck Sharp & Dohme LLC, priority 2023, published 2026):
Starred links: 1 amine or outer side, 2 acyl side, 3 side chain; linkers in the order of their positions; H or OH if unused. Non-standard residues stand in square brackets, D forms with d. dProc4Bn4Br = (2R,4R)-4-[(4-bromophenyl)methyl]pyrrolidine-2-carboxylic acid, O=C([C@H]1C[C@@H](Cc2ccc(Br)cc2)CN1[*:1])[*:2]; Trp(4-Cl)(βS-Me) = C[C@@H](c1c[nH]c2cccc(Cl)c12)[C@H](N)C(=O)O; dPro(4R-(4-pyridylmethyl)) = O=C(O)[C@H]1C[C@@H](Cc2ccncc2)CN1; dPro(3S-(4-Br-benzyl)) = O=C(O)[C@@H]1NCC[C@@H]1Cc1ccc(Br)cc1; Trp(βS-Me,4-F) = C[C@@H](c1c[nH]c2cccc(F)c12)[C@H](N)C(=O)O; Bip(4'-COOH) = N[C@@H](Cc1ccc(-c2ccc(C(=O)O)cc2)cc1)C(=O)O; Ala(1-bicyclo(1.1.1)pentyl) = N[C@@H](CC12CC(C1)C2)C(=O)O; dPro(4R-Bzl(4-F)) = O=C(O)[C@H]1C[C@@H](Cc2ccc(F)cc2)CN1; 1Nal(3S-Me) = C[C@@H](c1cccc2ccccc12)[C@H](N)C(=O)O; Ala(pyrimidin-5-yl) = N[C@@H](Cc1cncnc1)C(=O)O; Phe(4-COOH) = N[C@@H](Cc1ccc(C(=O)O)cc1)C(=O)O; dαMeDab = C[C@](CCN[*:3])(N[*:1])C(=O)[*:2]; Pro(cis-4-F) = O=C(O)[C@@H]1C[C@H](F)CN1; Ala(4-THP) = N[C@@H](CC1CCOCC1)C(=O)O; cisHyp = O=C(O)[C@@H]1C[C@H](O)CN1; d(αMeD) = C[C@@](N)(CC(=O)O)C(=O)O; d(αMeK) = C[C@@](N)(CCCCN)C(=O)O; 4Pal = N[C@@H](Cc1ccncc1)C(=O)O; aThr = C[C@H](O)[C@H](N)C(=O)O; αMeD = C[C@](N)(CC(=O)O)C(=O)O; αMeK = C[C@](N)(CCCCN)C(=O)O; hSer = N[C@@H](CCO)C(=O)O; Orn = NCCC[C@H](N)C(=O)O; Dab = NCC[C@H](N)C(=O)O; Dap = NC[C@H](N)C(=O)O; Aib = CC(C)(N)C(=O)O

Molecular target: Recombinant human IL-1β (BioLegend 579404) (human, UniProt P01584 117-269)
Test: cell-based or functional assay

| Binder | MRC5 IC50 [nM] |
| --- | --- |
| cyclo([Bip(4'-COOH)][4Pal][Phe(4-COOH)]G[Pro(cis-4-F)][Trp(βS-Me,4-F)][Aib]SW[dαMeDab][Ala(pyrimidin-5-yl)]Q[Dab]G[dPro(4R-Bzl(4-F))]) (ring closure inferred; not fully specified (bridges); printed as Bip4CO2H-4Pal-Phe4COOH-G-Proc4F-SbMeW4F-Aib-S-W-daMeDab-PyrimAla-Q-Dab-G-dProc4Bn4F) [SEQ ID NO: 142] | 0.019 |
| cyclo([Bip(4'-COOH)][4Pal][Phe(4-COOH)]G[Pro(cis-4-F)][1Nal(3S-Me)][Aib]EW[Aib][Ala(pyrimidin-5-yl)]Q[Dab]G[dPro(3S-(4-Br-benzyl))]) (ring closure inferred) [SEQ ID NO: 153] | 0.019 |
| cyclo([Bip(4'-COOH)][4Pal][Phe(4-COOH)]G[Pro(cis-4-F)][Trp(βS-Me,4-F)][Aib]EW[Aib][Ala(pyrimidin-5-yl)]Q[Dap]G[dPro(3S-(4-Br-benzyl))]) (ring closure inferred) [SEQ ID NO: 150] | 0.019 |
| cyclo([Bip(4'-COOH)][Ala(1-bicyclo(1.1.1)pentyl)][Phe(4-COOH)]G[Pro(cis-4-F)][Trp(βS-Me,4-F)][Aib]SW[d(αMeK)][Ala(pyrimidin-5-yl)]Q[Dab]G[dPro(4R-Bzl(4-F))]) (ring closure inferred; not fully specified (bridges); printed as Bip4CO2H-AlaPent-Phe4COOH-G-Proc4F-SbMeW4F-Aib-S-W-daMeK-PyrimAla-Q-Dab-G-dProc4Bn4F, cyclic (macrolactam)) [SEQ ID NO: 145] | 0.041 |
| cyclo([Bip(4'-COOH)][4Pal][Phe(4-COOH)]G[Pro(cis-4-F)][Trp(4-Cl)(βS-Me)][Aib]EW[Aib][Ala(pyrimidin-5-yl)]Q[Dab]G[dPro(4R-Bzl(4-F))]) (ring closure inferred; not fully specified (bridges); printed as Bip4CO2H-4Pal-Phe4COOH-G-Proc4F-sbMeW4Cl-Aib-E-W-Aib-PyrimAla-Q-Dab-G-dProc4Bn4F, cyclic (macrolactam)) [SEQ ID NO: 148] | 0.032 |
| cyclo([Bip(4'-COOH)][Ala(1-bicyclo(1.1.1)pentyl)][Phe(4-COOH)]G[Pro(cis-4-F)][Trp(βS-Me,4-F)][Aib]SW[αMeK][Ala(pyrimidin-5-yl)]Q[Dab]G[dPro(4R-Bzl(4-F))]) (ring closure inferred; not fully specified (bridges); printed as Bip4CO2H-AlaPent-Phe4COOH-G-Proc4F-SbMeW4F-Aib-S-W-aMeK-PyrimAla-Q-Dab-G-dProc4Bn4F, cyclic (macrolactam)) [SEQ ID NO: 144] | 0.031 |
| cyclo([Bip(4'-COOH)][4Pal][Phe(4-COOH)]G[Pro(cis-4-F)][Trp(βS-Me,4-F)][Aib]EW[Aib][Ala(pyrimidin-5-yl)]Q[Dab]G[dProc4Bn4Br]) (ring closure inferred; not fully specified (bridges); printed as Bip4CO2H-4Pal-Phe4COOH-G-Proc4F-sbMeW4F-Aib-E-W-Aib-PyrimAla-Q-Dab-G-dProc4Bn4Br, cyclic (macrolactam)) [SEQ ID NO: 143] | 0.026 |
| cyclo([Bip(4'-COOH)][4Pal][Phe(4-COOH)]G[Pro(cis-4-F)][Trp(βS-Me,4-F)][Aib][aThr]W[αMeK][Ala(pyrimidin-5-yl)]Q[Dab]G[dPro(4R-Bzl(4-F))]) (ring closure inferred; not fully specified (bridges); printed as Bip4CO2H-4Pal-Phe4COOH-G-Proc4F-SbMeW4F-Aib-alT-W-aMeK-PyrimAla-Q-Dab-G-dProc4Bn4F) [SEQ ID NO: 138] | 0.021 |
| cyclo([Bip(4'-COOH)][Ala(1-bicyclo(1.1.1)pentyl)][Phe(4-COOH)]G[cisHyp][Trp(βS-Me,4-F)][Aib]SW[d(αMeD)][Ala(pyrimidin-5-yl)]QSG[dPro(4R-(4-pyridylmethyl))]) (ring closure inferred) [SEQ ID NO: 157] | 0.038 |
| cyclo([Bip(4'-COOH)][4Pal][Phe(4-COOH)]G[Pro(cis-4-F)][1Nal(3S-Me)][Aib]SW[Aib][Ala(pyrimidin-5-yl)]Q[Dab]G[dPro(4R-Bzl(4-F))]) (ring closure inferred; not fully specified (bridges); printed as Bip4CO2H-4Pal-Phe4COOH-G-Proc4F-SbMe1Nal-Aib-S-W-Aib-PyrimAla-Q-Dab-G-dProc4Bn4F) [SEQ ID NO: 140] | 0.033 |
| cyclo([Bip(4'-COOH)][4Pal][Phe(4-COOH)]G[Pro(cis-4-F)][Trp(βS-Me,4-F)][Aib]SW[d(αMeD)][Ala(pyrimidin-5-yl)]QSG[dPro(4R-(4-pyridylmethyl))]) (ring closure inferred) [SEQ ID NO: 156] | 0.015 |

Now from value to binder:

| MRC5 IC50 [nM] | Binder |
| --- | --- |
| 0.034 | cyclo([Bip(4'-COOH)][4Pal][Phe(4-COOH)]G[Pro(cis-4-F)][Trp(4-Cl)(βS-Me)][Aib]SW[Aib][Ala(pyrimidin-5-yl)]Q[Dab]G[dPro(4R-Bzl(4-F))]) (ring closure inferred; not fully specified (bridges); printed as Bip4CO2H-4Pal-Phe4COOH-G-Proc4F-SbMeW4Cl-Aib-S-W-Aib-PyrimAla-Q-Dab-G-dProc4Bn4F) [SEQ ID NO: 139] |
| 0.011 | cyclo([Bip(4'-COOH)][Ala(1-bicyclo(1.1.1)pentyl)][Phe(4-COOH)]G[Pro(cis-4-F)][Trp(βS-Me,4-F)][Aib]SW[d(αMeD)][Ala(pyrimidin-5-yl)]Q[Dab]G[dPro(4R-(4-pyridylmethyl))]) (ring closure inferred) [SEQ ID NO: 155] |
| 0.011 | cyclo([Bip(4'-COOH)][4Pal][Phe(4-COOH)]G[Pro(cis-4-F)][Trp(βS-Me,4-F)][Aib]SW[αMeD][Ala(pyrimidin-5-yl)]Q[Dab]G[dPro(4R-Bzl(4-F))]) (ring closure inferred; not fully specified (bridges); printed as Bip4CO2H-4Pal-Phe4COOH-G-Proc4F-SbMeW4F-Aib-S-W-aMeD-PyrimAla-Q-Dab-G-dProc4Bn4F) [SEQ ID NO: 141] |
| 0.022 | cyclo([Bip(4'-COOH)][4Pal][Phe(4-COOH)]G[Pro(cis-4-F)][Trp(βS-Me,4-F)][Aib]TW[αMeK][Ala(pyrimidin-5-yl)]Q[Dab]G[dPro(4R-Bzl(4-F))]) (ring closure inferred; not fully specified (bridges); printed as Bip4CO2H-4Pal-Phe4COOH-G-Proc4F-SbMeW4F-Aib-T-W-aMeK-PyrimAla-Q-Dab-G-dProc4Bn4F) [SEQ ID NO: 137] |
| 0.031 | cyclo([Bip(4'-COOH)][4Pal][Phe(4-COOH)]G[Pro(cis-4-F)][Trp(βS-Me,4-F)][Aib]EW[Aib][Ala(pyrimidin-5-yl)]QKG[dPro(3S-(4-Br-benzyl))]) (ring closure inferred) [SEQ ID NO: 152] |
| 0.011 | cyclo([Bip(4'-COOH)][4Pal][Phe(4-COOH)]G[Pro(cis-4-F)][Trp(βS-Me,4-F)][Aib]SW[d(αMeD)][Ala(pyrimidin-5-yl)]Q[Dab]G[dPro(4R-(4-pyridylmethyl))]) (ring closure inferred) [SEQ ID NO: 154] |
| 0.045 | cyclo([Bip(4'-COOH)][Ala(1-bicyclo(1.1.1)pentyl)][Phe(4-COOH)]G[Pro(cis-4-F)][Trp(βS-Me,4-F)][Aib][hSer]W[αMeK][Ala(pyrimidin-5-yl)]Q[Dab]G[dPro(4R-Bzl(4-F))]) (ring closure inferred; not fully specified (bridges); printed as Bip4CO2H-AlaPent-Phe4COOH-G-Proc4F-SbMeW4F-Aib-hS-W-aMeK-PyrimAla-Q-Dab-G-dProc4Bn4F, cyclic (macrolactam)) [SEQ ID NO: 147] |
| 0.034 | cyclo([Bip(4'-COOH)][Ala(1-bicyclo(1.1.1)pentyl)][Phe(4-COOH)]G[Pro(cis-4-F)][Trp(βS-Me,4-F)][Aib]SW[αMeK][Ala(4-THP)]Q[Dab]G[dPro(4R-Bzl(4-F))]) (ring closure inferred; not fully specified (bridges); printed as Bip4CO2H-AlaPent-Phe4COOH-G-Proc4F-SbMeW4F-Aib-S-W-aMeK-AlaTHP4-Q-Dab-G-dProc4Bn4F, cyclic (macrolactam)) [SEQ ID NO: 146] |
| 0.024 | cyclo([Bip(4'-COOH)][4Pal][Phe(4-COOH)]G[Pro(cis-4-F)][1Nal(3S-Me)][Aib]EW[Aib][Ala(pyrimidin-5-yl)]Q[Dab]G[dPro(4R-Bzl(4-F))]) (ring closure inferred; not fully specified (bridges); printed as Bip4CO2H-4Pal-Phe4COOH-G-Proc4F-sbMe1Nal-Aib-E-W-Aib-PyrimAla-Q-Dab-G-dProc4Bn4F, cyclic (macrolactam)) [SEQ ID NO: 149] |
| 0.022 | cyclo([Bip(4'-COOH)][4Pal][Phe(4-COOH)]G[Pro(cis-4-F)][Trp(βS-Me,4-F)][Aib]EW[Aib][Ala(pyrimidin-5-yl)]Q[Orn]G[dPro(3S-(4-Br-benzyl))]) (ring closure inferred) [SEQ ID NO: 151] |
